Reference: publication doi:10.1101/2021.12.16.472998 (bioRxiv, 2021)

Assays:
[1] = molecular target: endogenous LY6S-iso1 protein in human spleen cells (Homo sapiens, UniProt P0DTL4); assay: immunostaining of cells or tissue
[2] = molecular target: native LY6S-iso1 protein (hLY6S-E, with its endogenous signal peptide) expressed in HEK293 cells (Homo sapiens, UniProt P0DTL4); assay: immunostaining of cells or tissue
[3] = molecular target: recombinant hFc-LY6S-iso1 fusion protein (Homo sapiens, UniProt P0DTL4); assay: immunoblot

Measured: binding result

Chain of native LY6S-iso1 protein (hLY6S-E, with its endogenous signal peptide) expressed in HEK293 cells (P0DTL4 27-134): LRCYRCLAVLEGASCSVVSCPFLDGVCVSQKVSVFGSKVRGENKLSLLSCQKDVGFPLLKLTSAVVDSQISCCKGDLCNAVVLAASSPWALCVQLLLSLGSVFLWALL
Chain of recombinant hFc-LY6S-iso1 fusion protein (P0DTL4 27-134): as above
Chain of endogenous LY6S-iso1 protein in human spleen cells (P0DTL4 27-134): as above

B1: anti-LY6S-iso1 monoclonal antibody 5E12 (antibody, V domains shown)
VH: QVQLKQSGAELVRPGASVKLSCKAWGYTFTGYEMHWVKQTPVHGLEWIGAIYPGSGGTAYNQKFKGQATLTVDKSSNTAYIELSSLTSEDSAVYYCTVYDFWGQGTTLTVSS
VL: DVVMTQTPLSLPVGLGDHASISCRSSQSLLKSDGNTYLHWYLQKSGQSPKLLIYKVSNRFSGVPDRFSGSGSGTDFTLKISRVEAEDLGVYFCSQSTHVPYTFGGGTKLEIK
binds: all assays above
